Data on two molecules can be found in patent publication US12692524B2, “Sialyltransferases and their use in producing sialylated oligosaccharides” (Chr. Hansen A/S, priority 2017, dated 2026).

As a reminder, the Km is the concentration of substrate that gives half-maximal velocity.

A short description of series [1]: In vitro kinetics (Km, Vmax), donor substrate CMP-Neu5Ac. It counts as biochemical. The conditions noted are these: 30° C., pH7.5, protein extract. How it is done: (§1) To rank the best performing sialyltransferases, their Km values for donor and acceptor substrates were determined in vitro. Escherichia coli BL21(DE3) strain #287 was used for overproduction of the enzymes. Cells were incubated in 100 ml 2YT medium in shaking flasks supplemented with 100 μg m^−1 ampicillin at 30° C. until an OD600 of 0.3 was reached. Then, 0.3 mM IPTG was added and the incubation was continued for 12 to 16 hours. Cells were harvested by centrifugation and mechanically disrupted in a defined volume of 50 mM Tris-HCl pH7.5 using glass beads. The protein extract was kept on ice until the assay started. The in vitro assay was carried out in a total volume of 50 μl including 50 mM Tris-HCl pH7.5, 5 mM MgCl2 and varying concentrations of CMP-Neu5Ac (0.05-30 mM) as well as of lactose or LNT (0.1-50 mM). The assay started with the addition of 35 to 750 μg protein extract. After 1 to 10 minutes of incubation at 30° C., the assay was inactivated at 95° C. for 5 minutes. Product formation was determined by mass spectrometry. Data were evaluated using the enzyme kinetic module of SigmaPlot v12.5 to calculate Km and Vmax.
(§2) Their kinetic parameters for CMP-Neu5Ac and LNT as well as lactose are depicted in Table 6.

Series [2] is described as follows: In vitro kinetics (Km, Vmax), acceptor substrate lactose. Type of series: biochemical. The conditions noted are these: 30° C., pH7.5, protein extract. How it is done:
as §1, §2

Series [3] is described as follows: In vitro kinetics (Km, Vmax), acceptor substrate LNT. Type of series: biochemical. The conditions noted are these: 30° C., pH7.5, protein extract. How it is done: as §1, §2
The nature of series [4]: Batch fermentation of LNT-producing E. coli BL21(DE3) #2130 expressing sialyltransferases, TLC of intracellular fraction. It counts as cell-based, Escherichia coli BL21(DE3). The conditions noted are these: strain #2130, 3 mM lactose, 3 mM sialic acid, 48 hours after induction, validated by mass spectrometry. The text has this:
Escherichia coli BL21(DE3) strain #534 was used to construct a lacto-N-tetraose (LNT) producing strain. The β-1,3-N-acetylglucosaminyltransferase gene IgtA from Neisseria meningitidis MC58 (acc. no. NP_274923) was codon-optimized for expression in E. coli and prepared synthetically by gene synthesis. Together with the gene galT, encoding a galactose-1-phosphate uridylyltransferase from E. coli K-12 substr. MG1655 (acc. no. NP_415279), that was similarly obtained by gene synthesis, IgtA was inserted by transposition (SEQ ID NO: 188) using plasmid pEcomar-IgtA-galT. To enhance de novo synthesis of UDP-N-acetylglucosamine, genes encoding L-glutamine:D-fuctose-6-phosphate aminotransferase (glmS), phosphoglucosamine mutase from E. coli K-12 substr. MG1655 (glmM) and N-acetylglucosamine-1-phosphate uridyltransferase/glucosamine-1-phosphate acetyltransferase (glmU) from E. coli K-12 substr. MG1655 (acc. no. NP_418185, NP_417643, NP_418186, respectively) were codon-optimized and obtained by gene synthesis. The operon glmUM was cloned under the control of constitutive tetracyclin promoter Ptet while glmS was cloned under the constitutive PT5 promoter. […]

Series [5] in a line: In vivo screening in E. coli #1363/#1730 with lactose as acceptor, sialyllactose identified by TLC. It counts as cell-based, Escherichia coli BL21(DE3). The conditions noted are these: 1.5 mM lactose, 72 to 96 hours, qualitative via TLC. In outline: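 E. coli BL21(DE3) #1363/#1730 expressing sialyltransferases were grown at 30 °C in mineral salts medium with 2% glucose and induced with 0.3 mM IPTG. After 1 h, 1.5 mM lactose was added, plus 1.5 mM sialic acid for #1730, and incubation ran 72–96 h. Cell lysates were analysed by silica TLC with thymol staining.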

B1: SiaT19: sialyltransferase of Photobacterium leiognathi JT-SHIZ-145, acc. BAF91416, SEQ ID NO: 30 (protein, listed as Photobacterium leiognathi)
chain: MNDNQNTVDVVVSTVNDNVIENNTYQVKPIDTPTTFDSYSWIQTCGTPILKDDEKYSLSFDFVAPELDQDEKFCFEFTGDVDGKRYVTQTNLTVVAPTLEVYVDHASLPSLQQLMKIIQQKNEYSQNERFISWGRIRLTEDNAEKLNAHIYPLAGNNTSQELVDAVIDYADSKNRLNLELNTNTGHSFRNIAPILRATSSKNNILISNINLYDDGSAEYVSLYNWKDTDNKSQKLSDSFLVLKDYLNGISSEKPNGIYSIYNWHQLYHSSYYFLRKDYLTVETKLHDLREYLGGSLKQMSWDTFSQLSKGDKELFLNIVGFDQEKLQQEYQQSELPNFVFTGTTTWAGGETKEYYAQQQVNVVNNAINETSPYYLGREHDLFFKGHPRGGIINDIILGSFNNMIDIPAKVSFEVLMMTGMLPDTVGGIASSLYFSIPAEKVSFIVFTSSDTITDREDALKSPLVQVMMTLGIVKEKDVLFWC
As for B1, in series [1], the Km came out at 1.1 mM and the “Vmax CMP-Neu5Ac” value amounted to 0.09 µmol/min. In series [2], the Michaelis-Menten constant (Km) came out at 3 mM and the “Vmax Lactose” value worked out at 0.09 µmol/min. Further, in series [3], the Km was 2.9 mM and the “Vmax LNT” value worked out at 0.04 µmol/min. Further, in series [4], the “Intracellular formation of sialyllacto-N-tetraose” value is “LST-b”. Further, the “Production of sialyllactose in-vivo” value in series [5] is recorded as 6′-SL.

B2: SiaT9: sialyltransferase of Vibrio sp. JT-FAJ-16, acc. BAF91160, SEQ ID NO: 2 (protein, listed as Vibrio sp.)
chain: MNNDNSTTTNNNAIEIYVDRATLPTIQQMTKIVSQKTSNKKLISWSRYPITDKSLLKKINAEFFKEQFELTESLKNIILSENIDNLIIHGNTLWSIDVVDIIKEVNLLGKNIPIELHFYDDGSAEYVRIYEFSKLPESEQKYKTSLSKNNIKFSIDGTDSFKNTIENIYGFSQLYPTTYHMLRADIFDTTLKINPLRELLSNNIKQMKWDYFKDFNYKQKDIFYSLTNFNPKEIQEDFNKNSNKNFIFIGSNSATATAEEQINIISEAKKENSSIITNSISDYDLFFKGHPSATFNEQIINAHDMIEINNKIPFEALIMTGILPDAVGGMGSSVFFSIPKEVKNKFVFYKSGTDIENNSLIQVMLKLNLINRDNIKLISDI
With B2, in series [1], the Michaelis-Menten constant (Km) is 0.96 mM and the “Vmax CMP-Neu5Ac” value was found to be 0.16 µmol/min. Besides, in series [2], the Km was 2.9 mM and the “Vmax Lactose” value came to 0.18 µmol/min. In series [3], the Km came to 2.9 mM and the “Vmax LNT” value was determined as 0.15 µmol/min. Also, the “Intracellular formation of sialyllacto-N-tetraose” value in series [4] is “LST-a”. Moreover, the “Production of sialyllactose in-vivo” value in series [5] is listed as 3′-SL.
